Results as given in patent US20220298260A1 (MYTHIC THERAPEUTICS, published 2022).

Target: T1, FOLR1 (R&D Systems, Cat #5646-FR) (human, UniProt P15328 25-233)
T1 construct: Bought soluble protein; also called Folate Receptor 1
Experiment: BLI, IgG on anti-human Fc sensor, 50 nM FOLR1

T1 sequence (P15328 25-233 limits assumed): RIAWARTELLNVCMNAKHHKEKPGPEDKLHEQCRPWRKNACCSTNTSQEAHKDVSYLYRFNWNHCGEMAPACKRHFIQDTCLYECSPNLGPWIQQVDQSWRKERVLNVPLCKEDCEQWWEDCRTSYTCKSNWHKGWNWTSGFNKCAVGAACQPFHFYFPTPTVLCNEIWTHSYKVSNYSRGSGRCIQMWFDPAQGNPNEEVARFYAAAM

binding result | Binder
binds | MYT0598 (antibody, V domains shown, IgG) VH: QVQLVQSGAEVVKPGASVKISCKHSGYTFTGYFMNWVKQSPGQSLEWIGRIHPYDGDTFYNQKFQGKATLTVDKSSNTAHMELLSLTSEDFAVYYCTRYDGSRAMDYWGQGTTVTVSS VL: DIVLTQSPLSLAVSLGQPAIISCKASQSVSFAGTSLMHWYHQKPGQQPRLLIYRASNLEAGVPDRFSGSGSKTDFTLTISPVEAEDAATYYCQQSREYPYTFGGGTKLEIK
binds | MYT0600 (antibody, V domains shown, IgG) VH: QVQLVQSGAEVVKPGASVKISCKASHYTFTGYFMNWVKQSPGQSLEWIGRIHPYDGDTFYNQKFQGKATLTVDKSSNTAHMELLSLTSEDFAVYYCTRYDGSRAMDYWGQGTTVTVSS VL: DIVLTQSPLSLAVSLGQPAIISCKASQSVSFAGTSLMHWYHQKPGQQPRLLIYRASNLEAGVPDRFSGSGSKTDFTLTISPVEAEDAATYYCQQSREYPYTFGGGTKLEIK
binds | MYT0610 (antibody, V domains shown, IgG) VH: QVQLVQSGAEVVKPGASVKISCKASGYTFTGYFMNWVKQSPGQSLEWIGHIHPYDGDTFYNQKFQGKATLTVDKSSNTAHMELLSLTSEDFAVYYCTRYDGSRAMDYWGQGTTVTVSS VL: DIVLTQSPLSLAVSLGQPAIISCKASQSVSFAGTSLMHWYHQKPGQQPRLLIYRASNLEAGVPDRFSGSGSKTDFTLTISPVEAEDAATYYCQQSREYPYTFGGGTKLEIK
binds | MYT0611 (antibody, V domains shown, IgG) VH: QVQLVQSGAEVVKPGASVKISCKASGYTFTGYFMNWVKQSPGQSLEWIGRHHPYDGDTFYNQKFQGKATLTVDKSSNTAHMELLSLTSEDFAVYYCTRYDGSRAMDYWGQGTTVTVSS VL: DIVLTQSPLSLAVSLGQPAIISCKASQSVSFAGTSLMHWYHQKPGQQPRLLIYRASNLEAGVPDRFSGSGSKTDFTLTISPVEAEDAATYYCQQSREYPYTFGGGTKLEIK
binds | MYT0601 (antibody, V domains shown, IgG) VH: QVQLVQSGAEVVKPGASVKISCKASGHTFTGYFMNWVKQSPGQSLEWIGRIHPYDGDTFYNQKFQGKATLTVDKSSNTAHMELLSLTSEDFAVYYCTRYDGSRAMDYWGQGTTVTVSS VL: DIVLTQSPLSLAVSLGQPAIISCKASQSVSFAGTSLMHWYHQKPGQQPRLLIYRASNLEAGVPDRFSGSGSKTDFTLTISPVEAEDAATYYCQQSREYPYTFGGGTKLEIK
binds | MYT0604 (antibody, V domains shown, IgG) VH: QVQLVQSGAEVVKPGASVKISCKASGYTFHGYFMNWVKQSPGQSLEWIGRIHPYDGDTFYNQKFQGKATLTVDKSSNTAHMELLSLTSEDFAVYYCTRYDGSRAMDYWGQGTTVTVSS VL: DIVLTQSPLSLAVSLGQPAIISCKASQSVSFAGTSLMHWYHQKPGQQPRLLIYRASNLEAGVPDRFSGSGSKTDFTLTISPVEAEDAATYYCQQSREYPYTFGGGTKLEIK
binds | MYT0605 (antibody, V domains shown, IgG) VH: QVQLVQSGAEVVKPGASVKISCKASGYTFTHYFMNWVKQSPGQSLEWIGRIHPYDGDTFYNQKFQGKATLTVDKSSNTAHMELLSLTSEDFAVYYCTRYDGSRAMDYWGQGTTVTVSS VL: DIVLTQSPLSLAVSLGQPAIISCKASQSVSFAGTSLMHWYHQKPGQQPRLLIYRASNLEAGVPDRFSGSGSKTDFTLTISPVEAEDAATYYCQQSREYPYTFGGGTKLEIK
binds | MYT0599 (antibody, V domains shown, IgG) VH: QVQLVQSGAEVVKPGASVKISCKAHGYTFTGYFMNWVKQSPGQSLEWIGRIHPYDGDTFYNQKFQGKATLTVDKSSNTAHMELLSLTSEDFAVYYCTRYDGSRAMDYWGQGTTVTVSS VL: DIVLTQSPLSLAVSLGQPAIISCKASQSVSFAGTSLMHWYHQKPGQQPRLLIYRASNLEAGVPDRFSGSGSKTDFTLTISPVEAEDAATYYCQQSREYPYTFGGGTKLEIK
binds | MYT0612 (antibody, V domains shown, IgG) VH: QVQLVQSGAEVVKPGASVKISCKASGYTFTGYFMNWVKQSPGQSLEWIGRIAPYDGDTFYNQKFQGKATLTVDKSSNTAHMELLSLTSEDFAVYYCTRYDGSRAMDYWGQGTTVTVSS VL: DIVLTQSPLSLAVSLGQPAIISCKASQSVSFAGTSLMHWYHQKPGQQPRLLIYRASNLEAGVPDRFSGSGSKTDFTLTISPVEAEDAATYYCQQSREYPYTFGGGTKLEIK
binds | MYT0608 (antibody, V domains shown, IgG) VH: QVQLVQSGAEVVKPGASVKISCKASGYTFTGYFHNWVKQSPGQSLEWIGRIHPYDGDTFYNQKFQGKATLTVDKSSNTAHMELLSLTSEDFAVYYCTRYDGSRAMDYWGQGTTVTVSS VL: DIVLTQSPLSLAVSLGQPAIISCKASQSVSFAGTSLMHWYHQKPGQQPRLLIYRASNLEAGVPDRFSGSGSKTDFTLTISPVEAEDAATYYCQQSREYPYTFGGGTKLEIK
binds | MYT0597 (antibody, V domains shown, IgG) VH: QVQLVQSGAEVVKPGASVKISCHASGYTFTGYFMNWVKQSPGQSLEWIGRIHPYDGDTFYNQKFQGKATLTVDKSSNTAHMELLSLTSEDFAVYYCTRYDGSRAMDYWGQGTTVTVSS VL: DIVLTQSPLSLAVSLGQPAIISCKASQSVSFAGTSLMHWYHQKPGQQPRLLIYRASNLEAGVPDRFSGSGSKTDFTLTISPVEAEDAATYYCQQSREYPYTFGGGTKLEIK
binds | MYT0614 (antibody, V domains shown, IgG) VH: QVQLVQSGAEVVKPGASVKISCKASGYTFTGYFMNWVKQSPGQSLEWIGRIHPHDGDTFYNQKFQGKATLTVDKSSNTAHMELLSLTSEDFAVYYCTRYDGSRAMDYWGQGTTVTVSS VL: DIVLTQSPLSLAVSLGQPAIISCKASQSVSFAGTSLMHWYHQKPGQQPRLLIYRASNLEAGVPDRFSGSGSKTDFTLTISPVEAEDAATYYCQQSREYPYTFGGGTKLEIK
binds | MYT0606 (antibody, V domains shown, IgG) VH: QVQLVQSGAEVVKPGASVKISCKASGYTFTGHFMNWVKQSPGQSLEWIGRIHPYDGDTFYNQKFQGKATLTVDKSSNTAHMELLSLTSEDFAVYYCTRYDGSRAMDYWGQGTTVTVSS VL: DIVLTQSPLSLAVSLGQPAIISCKASQSVSFAGTSLMHWYHQKPGQQPRLLIYRASNLEAGVPDRFSGSGSKTDFTLTISPVEAEDAATYYCQQSREYPYTFGGGTKLEIK
binds | MYT0602 (antibody, V domains shown, IgG) VH: QVQLVQSGAEVVKPGASVKISCKASGYHFTGYFMNWVKQSPGQSLEWIGRIHPYDGDTFYNQKFQGKATLTVDKSSNTAHMELLSLTSEDFAVYYCTRYDGSRAMDYWGQGTTVTVSS VL: DIVLTQSPLSLAVSLGQPAIISCKASQSVSFAGTSLMHWYHQKPGQQPRLLIYRASNLEAGVPDRFSGSGSKTDFTLTISPVEAEDAATYYCQQSREYPYTFGGGTKLEIK
binds | MYT0607 (antibody, V domains shown, IgG) VH: QVQLVQSGAEVVKPGASVKISCKASGYTFTGYHMNWVKQSPGQSLEWIGRIHPYDGDTFYNQKFQGKATLTVDKSSNTAHMELLSLTSEDFAVYYCTRYDGSRAMDYWGQGTTVTVSS VL: DIVLTQSPLSLAVSLGQPAIISCKASQSVSFAGTSLMHWYHQKPGQQPRLLIYRASNLEAGVPDRFSGSGSKTDFTLTISPVEAEDAATYYCQQSREYPYTFGGGTKLEIK
